How the values were obtained:
Conditions in all cases: 20 nM; 72 h
MCF10A [1] = test: percent viability (nuclei count relative to siNT); higher = more viable cells
Procedure: (§1)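 After 72 h, cells were fixed and stained with Hoechst and anti-fibrillarin, and nucleoli per nucleus were counted with CellProfiler. Values are plate-adjusted percent effect for the one-nucleolus and 5+ nucleoli phenotypes, normalised to siNT (0%) and to the positive controls siNOL11 or siKIF11 (100%), as the mean of biological triplicates. Percent viability is the nuclei count relative to siNT.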

MCF10A [2] = test: 5+ nucleoli phenotype percent effect (relative to siNT 0% and siKIF11 100%); higher = more cells with five or more nucleoli
Procedure: as §1

MCF10A [3] = test: one-nucleolus phenotype percent effect (relative to siNT 0% and siNOL11 100%); higher = more cells with one nucleolus (ribosome biogenesis inhibition)
Procedure: as §1

Sequence	percent viability (MCF10A [1])	5+ nucleoli phenotype percent effect (MCF10A [2])	one-nucleolus phenotype percent effect (MCF10A [3])
CUGCAGCCACUUGGGGAACUGGU [hsa-miR-7156-3p]	57.4%	-7.7%	8.88%
UAGUCCCUUCCUUGAAGCGGUC [hsa-miR-2114-5p]	25.2%	-46%	43.8%
ACUCCAGCCCCACAGCCUCAGC [hsa-miR-766-3p]	39%	-19.8%	15.5%
AGGAGGAUGGAGAGCUGGGCCAGA [hsa-miR-6894-5p]	28.1%	6.67%	22.2%
ACGGGCAGGGCAGUGCACCCUG [hsa-miR-7112-5p]	31.2%	2.37%	12.5%
AAAGAUAGACAAUUGGCUAAAU [hsa-miR-4662a-3p]	83.7%	4.11%	-23.7%
CUCGGGGCAGGCGGCUGGGAGCG [hsa-miR-6727-5p]	74.2%	19.5%	-15.9%
UUAUAAUACAACCUGAUAAGUG [hsa-miR-374a-5p]	100%	26.1%	-14.4%
UCCAGUACCACGUGUCAGGGCCA [hsa-miR-770-5p]	55.6%	-28.6%	29.4%
UCGAGGAGCUCACAGUCUAGU [hsa-miR-151a-5p]	86.8%	9.84%	-6%
GGAUGGUUGGGGGCGGUCGGCGU [hsa-miR-8069]	33.5%	-16.7%	28.5%
CUCAGUAGCCAGUGUAGAUCCU [hsa-miR-222-5p]	57.4%	-14.7%	14%
UGGAGAGAAAGGCAGUA [hsa-miR-4306]	13.5%	31.6%	-8.22%
CUCUAGAGGGAAGCACUUUCUG [hsa-miR-526a]	39.9%	-7.42%	0.562%
CCUGCGUGUUUUCUGUCCAA [hsa-miR-4520b-5p]	51%	-6.92%	1.66%
UAGGGGGUGGCAGGCUGGCC [hsa-miR-6732-5p]	33.3%	-15.7%	17.1%
CCAAUAUUACUGUGCUGCUUUA [hsa-miR-16-2-3p]	121%	40.6%	-17.8%
UGUGACAGAUUGAUAACUGAAA [hsa-miR-542-3p]	39.5%	-17.1%	65.1%
UCCCUCUCCCACCCCUUGCAG [hsa-miR-6892-3p]	52.2%	42.4%	-29%
UCGAGGACUGGUGGAAGGGCCUU [hsa-miR-3131]	47.9%	-6.74%	8.15%

Sequence	percent viability (MCF10A [1])	5+ nucleoli phenotype percent effect (MCF10A [2])	one-nucleolus phenotype percent effect (MCF10A [3])
UUGGGCCCAGGAGUAAACAGGAU [hsa-miR-6773-5p]	40.3%	-4.65%	-0.04%
UGAGUGGGGCUCCCGGGACGGCG [hsa-miR-4745-5p]	57.7%	25%	-8.18%
UAAUUGCUUCCAUGUUU [hsa-miR-302f]	65.5%	-31.2%	22.1%
CAGCAGCACACUGUGGUUUGU [hsa-miR-497-5p]	15.2%	-38.4%	50.2%
AGUGGGGUGGGACCCAGCUGUU [hsa-miR-6742-5p]	21.8%	-35.4%	43.2%
UGGGUCUUUGCGGGCGAGAUGA [hsa-miR-193a-5p]	40.4%	-18.7%	26.5%
UUAGGGCCCUGGCUCCAUCUCC [hsa-miR-1296]	39.5%	13.2%	8%
CCUGGACACCGCUCAGCCGGCCG [hsa-miR-4638-3p]	106%	8.98%	-15.8%
GAGGAAACUGAAGCUGAGAGGG [hsa-miR-4496]	88.3%	40.4%	-13.7%
AAAAGUACUUGCGGAUUUUGCU [hsa-miR-548k]	75.4%	36.4%	-15.1%
CCACCUCCCCUGCAAACGUCCA [hsa-miR-1306-5p]	35%	33%	-25.8%
CUCCUGACUCCAGGUCCUGUGU [hsa-miR-378a-5p]	25.2%	-8.66%	10.6%
UCCAUGUUUCCUUCCCCCUUCU [hsa-miR-4716-5p]	28.8%	-43.5%	45.4%
ACGUUUGAAUGCUGUACAAGGC [hsa-miR-5707]	185%	56.2%	-26.7%
GGCAGGUUCUCACCCUCUCUAGG [hsa-miR-657]	44.7%	15.8%	4.3%
UUGAGAAUGAUGAAUCAUUAGG [hsa-miR-580]	91.4%	25.6%	-18.3%
CUGACUGAAUAGGUAGGGUCAUU [hsa-miR-3136-5p]	32.7%	-32.9%	24.8%
CUACCCUCGGUCUGCUUACCACA [hsa-miR-7848-3p]	41.7%	-35.7%	25.5%
CCUGCGUGUUUUCUGUCCAA [hsa-miR-4520a-5p]	52.7%	-4.05%	3.67%
AUCAUGUAUGAUACUGCAAACA [hsa-miR-6516-3p]	46.4%	-35%	25.6%

Sequence	percent viability (MCF10A [1])	5+ nucleoli phenotype percent effect (MCF10A [2])	one-nucleolus phenotype percent effect (MCF10A [3])
UUGCCACACUGCAACACCUUACA [hsa-miR-3064-3p]	39.1%	-31.2%	8.14%
UGUAAACAUCCUACACUCAGCU [hsa-miR-30b-5p]	93%	34.3%	-9.57%
UUCGGUAUACUUUGUGAAUUGG [hsa-miR-4798-5p]	78.1%	-0.701%	0.862%
UUGGCCACAAUGGGUUAGAAC [hsa-miR-588]	40.2%	11.2%	9.67%
GUGGGUUGGGGCGGGCUCUG [hsa-miR-3940-5p]	52.7%	-4.07%	-5.1%
AGCUUCUUUACAGUGCUGCCUUG [hsa-miR-103a-2-5p]	36.7%	-36.6%	7.49%
UGGGAGGAGGGGAUCUUGGG [hsa-miR-7106-5p]	34.9%	21.2%	-7.27%
AGGUAGAAUGAGGCCUGACAU [hsa-miR-4650-3p]	33.4%	-12.9%	7.9%
GCUAGUCCUGACUCAGCCAGU [hsa-miR-554]	67.7%	10.2%	-12.9%
UGUUCAUUGGAACCCUGCGCAG [hsa-miR-6853-3p]	79.8%	29%	-28.7%
CUUUCAGUCGGAUGUUUGCAGC [hsa-miR-30a-3p]	86.1%	-31%	1.29%
UGGCUUCUCUUGCACACCCAG [hsa-miR-6815-3p]	19.9%	-12.3%	62.9%
UAGUGGUCAGAGGGCUUAUGA [hsa-miR-6718-5p]	18.9%	-44.7%	39.8%
UCGGCUCUCUCCCUCACCCUAG [hsa-miR-6741-3p]	33.2%	-4.11%	9.37%
UGGAGAGAGAAAAGAGACAGAAG [hsa-miR-4644]	74.5%	39.4%	-24.6%
UGUGAUAUCGUGCUUCCUGGGA [hsa-miR-3689f]	109%	17.5%	-21.8%
ACGCCCUUCCCCCCCUUCUUCA [hsa-miR-1249]	85.3%	29.3%	-13.3%
CAGCCUGACAGGAACAG [hsa-miR-4293]	33.8%	4.42%	-6.3%
GAUGAGCUCAUUGUAAUAUGAG [hsa-miR-556-5p]	111%	8.79%	-2.48%
